Assay: yeast display, Sf9 membrane polyspecificity reagent, FACS + sequencing; frameworks hold sequencing errors
How it was run: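 Nanobodies came from a synthetic yeast display library in Saccharomyces cerevisiae BJ5465, induced with galactose for 36–48 hours and stained for 1 hour at 4 °C with 10% biotinylated, detergent-solubilized Sf9 membrane reagent. Cells were enriched on streptavidin microbeads and then FACS-sorted, with low and high (top ~1%) gates set on anti-HA fluorescence for expression and streptavidin fluorescence for reagent binding. Each polyreactivity label reflects the gate a clone came from. Genes were amplified by colony PCR, sequenced by MiSeq 2 × 250 and filtered by CDR length.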
With “QVQLVESGGGLVQAGGSLRLSCAASGFIFYRYTMGCYRQAPGKERELVAGISSRGTRTYYADSVKGRFTISRDNAKNTVYLQMNSLKPEDTAVYYCAKVDGSKRYNYWGQGTQVTVSS” the “polyreactivity (PSR sort gate)” value was “high polyreactivity”.
For “QVQLVESGGGLVQAGGSLRLSCAASGFIFYSNAMGWYRQAPGKERELVAAISRGGGSTYYADSVKGRITISRDNAKNTVYLQMNSLIPVDTAVYYCAKRRLSPQDDYWGQGTQVTVSS”, the “polyreactivity (PSR sort gate)” value was “high polyreactivity”.
With “QVQLVESGGGLVQAGGSLRLSCAASGFIFYSNAMGWYRQAPGKERELVAAISRSGGSTYYADSVKGRFTISRDNAKNTVYLQMNSLKPEDTAVYYCNADYVYRRYGYWGQGSQVTVSS” the “polyreactivity (PSR sort gate)” value was “high polyreactivity”.
With “QVQLVESGGGLVQAGGSLRLSCAASGFIFYSYAMGWYRQAPGKEREFVAAISRGGGRTYYADSVKGRFTISRDNAKNTVYLHMYSLKQEDTAVFYCATLPNGPHWPEYDYWGQGTQVTVSS” the “polyreactivity (PSR sort gate)” value was “high polyreactivity”.
With “QVQLVESGGGLVQAGGSLRLSCAASGFIFYSYAMGWYRQAPGKERELVAAISFSGSRTYYADSVKGRFTISRDNAKNTVYLQMNSLKPEDTAVYYCAAYYIASRSTRYYYWGQGTQVTVSS” the “polyreactivity (PSR sort gate)” value was “high polyreactivity”.
In the case of “QVQLVESGGGLVQAGGSLRLSCAASGFIFYSYAMGWYRQAPGKERELVAAISRSGGITYYADSVKGRFTISRDNAKNTVYLQMNSLKPEDTAVYYCAKVGRGVSSIKDMDSWGQGTQVTVSS”, the “polyreactivity (PSR sort gate)” value was “high polyreactivity”.
In the case of “QVQLVESGGGLVQAGGSLRLSCAASGFIFYSYAMGWYRQAPGKERELVAAITSSGGNTYYADSVKGRFTISRDNAKNTVYLQMNSLKPEDSAVYYCAASSRFWTFYYGIILYDYWGQGTQVTVSS”, the “polyreactivity (PSR sort gate)” value was “high polyreactivity”.
In the case of “QVQLVESGGGLVQAGGSLRLSCAASGFIFYSYPMGWYRKAPGKERALVAAITEDGDSTYYADSVKGRFTISRDNAKNTVYLQMNSLKPVDTAVYYCNTDLTFNGTSGDYDYWGQGTQVTVSS”, the “polyreactivity (PSR sort gate)” value was “low polyreactivity”.
With “QVQLVESGGGLVQAGGSLRLSCAASGFIFYTYAMGWYRQAPGKERELVAAITWDGGSTYYADSVKGRFTISRDTAKNTVYLQMNSLKPEDTAVYYCNAEYGYIRGNYGYWGQGTQVTVSS” the “polyreactivity (PSR sort gate)” value was “low polyreactivity”.
For “QVQLVESGGGLVQAGGSLRLSCAASGFIFYVYAMGWYRQAPGKERELVAAISADGGITYYADSVKGRFTISRDNAKNTVYLQMNSLKPEDTAVYYCNTLGDQDAYAGFRLDYWVQGTQVTVSS”, the “polyreactivity (PSR sort gate)” value was “low polyreactivity”.
For “QVQLVESGGGLVQAGGSLRLSCAASGFIFYYNAMGWYRQAPGKERELVASISFSGGSTYYADSVKGRFTISRDNAKNTVYLQKNSLKPEDTAVYYCAARYPGGRPWPRYYYWGQGNQVTVSS”, the “polyreactivity (PSR sort gate)” value was “high polyreactivity”.
In the case of “QVQLVESGGGLVQAGGSLRLSCAASGFIFYYNTMGWYRQAPGKERELVASITWSGDTTYYADSVKGRFTISRDNAKNTVYLQMNSLKPEDTAVYYCAAVHYYTYRRYDYWGQGTQVTVSS”, the “polyreactivity (PSR sort gate)” value was “low polyreactivity”.
With “QVQLVESGGGLVQAGGSLRLSCAASGFIFYYNVMGWYRQAPGKERELVAAIRYRGTITYYADSVKGRFTISRDNAKNTVYLQMNSLKPEDTAVYYCARRQRNYYRSSPGGDYWGQGTQVTVSS” the “polyreactivity (PSR sort gate)” value was “low polyreactivity”.
In the case of “QVQLVESGGGLVQAGGSLRLSCAASGFIFYYYAMGWYRQAPGKERELVAAISRGGSTYYADSVKGRFTISRDNAKNTVYLQMNSLKPEDTAVYYCAAEAFPVYSYYYWGQGTQVTVSS”, the “polyreactivity (PSR sort gate)” value was “high polyreactivity”.
In the case of “QVQLVESGGGLVQAGGSLRLSCAASGFIFYYYAMGWYRQAPGKERELVAAITSSGGSTYYADSVKGRFTISRDNAKNTVYLQKNSLKPEDTAVYYCAAYYHGRMDYWGQGTQVTVSS”, the “polyreactivity (PSR sort gate)” value was “high polyreactivity”.
In the case of “QVQLVESGGGLVQAGGSLRLSCAASGFIFYYYAMGWYRQAPGKVRELVAAISTDGGSTYYADSVKGRFTISRDNAKNTVYLQMNSLKPEDTADYYCNAPYYGWGYWPLEYIRYEYWGQGTQVTVSS”, the “polyreactivity (PSR sort gate)” value was “low polyreactivity”.
For “QVQLVESGGGLVQAGGSLRLSCAASGFIFYYYAMGWYRQAPGKVRELVAGITATGGSTYYADSVKGRFTISRDNAKNTVYLQMNSLKPEDTAVYYCAAEHGRRATYTWWVIYDYLGQGTQVTVSS”, the “polyreactivity (PSR sort gate)” value was “low polyreactivity”.
In the case of “QVQLVESGGGLVQAGGSLRLSCAASGFIFYYYAMGWYRQAPRKERELVAAISRSGGSTYYADSVKGRFTISRDNAKNTVYLQMNSLKPEDTAVYYCNTVPGTLYFRYDYWGQGTQVTVSS”, the “polyreactivity (PSR sort gate)” value was “high polyreactivity”.
For “QVQLVESGGGLVQAGGSLRLSCAASGFIFYYYTMGWYRPAPGKERELVAAISRGGGSTYYADSVKGRFTISRDNAKNTVYLQMNSLKPEDTAVYYCALTDRRLGAHQGDYWGQGTQVTVSS”, the “polyreactivity (PSR sort gate)” value was “high polyreactivity”.
In the case of “QVQLVESGGGLVQAGGSLRLSCAASGFIIARNAMGWYRQAPGKERELVAAISASGGRTYYADSVKGRFTISRDNAKNTVYLKKNSLKPEDTAVYYCAAAVLRYALRFDYWGQGTQVTVSS”, the “polyreactivity (PSR sort gate)” value was “high polyreactivity”.
With “QVQLVESGGGLVQAGGSLRLSCAASGFIIGSYTMGWYRQAPGKERELVASITKRGGSTYYADSVKGRFTISRDNAKNTVYFQMNSLKPEDTAVYYCAATYWFSHRSRYDYWGQGTQVTVSS” the “polyreactivity (PSR sort gate)” value was “high polyreactivity”.
In the case of “QVQLVESGGGLVQAGGSLRLSCAASGFIIHRYAMGWYRQAPGKERELVAVITSGGGSTYYADSVKGRFTISRDNAKNTVYLQMNSLKPEDTAVYYCAAYQPYNSRYRYDYWGQGTQVTVSS”, the “polyreactivity (PSR sort gate)” value was “high polyreactivity”.
For “QVQLVESGGGLVQAGGSLRLSCAASGFIIKFYAMGWYRQAPGKERELVATITFSSGTTYYADSVKGRFTISRDNAKNTVYLQMNSLKPEDTAVYYCAASTLPAWPYDGPAGPRYDYWGQGTQVTVSS”, the “polyreactivity (PSR sort gate)” value was “low polyreactivity”.
In the case of “QVQLVESGGGLVQAGGSLRLSCAASGFIIQYYAMGWYRQAPGKERELVAVIRSGGSTYYADSVKGRFTISRDNAKNTVFFQMNSLKPEDTAVYYCIARRTYLDRYNYWGQGTQVTVSS”, the “polyreactivity (PSR sort gate)” value was “high polyreactivity”.
In the case of “QVQLVESGGGLVQAGGSLRLSCAASGFIIRSYAMGWYRQAPGKERELLAAISSRGGSTYYADSVKGRFTISRDNANNTVYLQINSLKPEDTAVYYCAADWKSKRTDKYDSWGQGTQVTVSS”, the “polyreactivity (PSR sort gate)” value was “high polyreactivity”.
With “QVQLVESGGGLVQAGGSLRLSCAASGFIIRTYAMGWYRQAPGKERELVAAITGRGGTTYYADSVKGRFTISRDNAKNTVDLQMNSLKPEDTAVYYCAARSRDYNYNPYDYWGQGTQVTVSS” the “polyreactivity (PSR sort gate)” value was “high polyreactivity”.
With “QVQLVESGGGLVQAGGSLRLSCAASGFIITSNAMGWYRQAPGKERELVAAITWSGGRTYYADSVKGRFTISRDNAKNTVYLQMNSLKPEDTAVYYCAAGYYKGFTLVRVIFDYWGHGTQVTVSS” the “polyreactivity (PSR sort gate)” value was “low polyreactivity”.
For “QVQLVESGGGLVQAGGSLRLSCAASGFIITTYAMGWYRQAPGKERELVAGISSSGGRTYADSVKGRFTISRDNAKNTVYLQMNSLKPEDTAVYYCAREQWRTLVQTDKYKYDYWGQGTQVTVSS”, the “polyreactivity (PSR sort gate)” value was “high polyreactivity”.
With “QVQLVESGGGLVQAGGSLRLSCAASGFIIWYSAMGWYRQAPGKERELVAAIRSGGSTYYADSVKGRFTISRDNAMNTVYLQMNSLKPEDTAVYYCAAGKNVYYFSRSKYGYDYWGQGTQVTVSS” the “polyreactivity (PSR sort gate)” value was “high polyreactivity”.
With “QVQLVESGGGLVQAGGSLRLSCAASGFIIYGYVMGWYRQAPGKERELVAAINSSSGRTYYADSVKGRFTISRDNAKNTVYLQMNSLKPEDTAVYYCAAYYYGSYDGTPYDYRGQGTQVTVSS” the “polyreactivity (PSR sort gate)” value was “low polyreactivity”.
For “QVQLVESGGGLVQAGGSLRLSCAASGFIIYRYAMGWYRQAPGKEWELVAAISKRGGSTYYADSVKGRFTISRDNAKNTVYLQMNSLKPEDTAVYYCAANRSYVDSTSFGKAYGYWGQGTQVTVSS”, the “polyreactivity (PSR sort gate)” value was “high polyreactivity”.
For “QVQLVESGGGLVQAGGSLRLSCAASGFILARYAMGWYRQAPGKERELVAVISSGGSSTFYADSVKGRFTISRDNAKNTVYLQMKSLKPEDTAVYYCAARYKSSKKVGFDYWGQGTQVTVSS”, the “polyreactivity (PSR sort gate)” value was “high polyreactivity”.
With “QVQLVESGGGLVQAGGSLRLSCAASGFILDNYAMGWYRQAPGKERELVAAISGSGGSTYYADSVKGRFTISRDNAKNTVYLQMNSLKPEDTAVYYCNRDRLLRQYDYWGQGTQVTVSS” the “polyreactivity (PSR sort gate)” value was “high polyreactivity”.
In the case of “QVQLVESGGGLVQAGGSLRLSCAASGFILERYAMGWYRQAPGKERELVAAISSVGNTNYADSVKGRFTITRDNAKNTVYLQMNSLKPEDTAVYYCAAEGAFPIYDYWGQGTQVTVSS”, the “polyreactivity (PSR sort gate)” value was “low polyreactivity”.
For “QVQLVESGGGLVQAGGSLRLSCAASGFILFPYAMGWYRQAPGKERELVAAIRSDDTTYYADSVKGRFTISRDNAKNTVYLQMNSLKPEDTAVYYCNAARTRWATGYDYWGQGTQVTVSS”, the “polyreactivity (PSR sort gate)” value was “low polyreactivity”.
With “QVQLVESGGGLVQAGGSLRLSCAASGFILGGYAMGWYRQAPGKERELVAAISWSSGSTYYADSVKGRFTISRDNAKNTVYLQMNSLKPEDTAVYYCAAVGAYDYWGQGTQVSVSS” the “polyreactivity (PSR sort gate)” value was “low polyreactivity”.
With “QVQLVESGGGLVQAGGSLRLSCAASGFILGHNAMGWYRQAPGKERELVSAITWRGRTYYADSVKGRFTISRDNAKNTVYLHMNSLKPEDTAVYYCASDTKFCYGYWGQGTQVTVSS” the “polyreactivity (PSR sort gate)” value was “high polyreactivity”.
For “QVQLVESGGGLVQAGGSLRLSCAASGFILGLNALGWYRHAPGKAWEFVADISWSGDSTYYADSVKGRFTISRDNAKNTVYLQMNSRKPEDTAVYYCPAVWYTSRQKYDYWGQGTQGTVSS”, the “polyreactivity (PSR sort gate)” value was “low polyreactivity”.
In the case of “QVQLVESGGGLVQAGGSLRLSCAASGFILGSNAMGWYRQAPGKERELVAAISRSGGSTYYADSVKGRFTISRDNAKNTVYLQMNSLKPEDTAVYYCNRVASVRARDYDYWGQGTQVTVSS”, the “polyreactivity (PSR sort gate)” value was “high polyreactivity”.
With “QVQLVESGGGLVQAGGSLRLSCAASGFILGSNVMGWYRQAPGKERELVAAISYSGGSTYYADSVKGRFTISRDNAKNTVYLQMNSLKPEDTAVYYCARRLTREYDYWGQGSQVTVSS” the “polyreactivity (PSR sort gate)” value was “low polyreactivity”.
With “QVQLVESGGGLVQAGGSLRLSCAASGFILGYYAMGWYRQAPGKERELVAAISWNGGRTYYADSVKGRFTISRDNAKNTVYLQMNSLKPEDTAVYYCAVVATVIPWPYDYWGQGTQVTVSS” the “polyreactivity (PSR sort gate)” value was “high polyreactivity”.
In the case of “QVQLVESGGGLVQAGGSLRLSCAASGFILIQYAMGWYRQAPGKERELVAAITWSDTSTNYADSVKGRFTISRDNAKNTVYLQMNSLKPEDTAVYYCAAYPVRYYNQYDYWGQGTQVTVSS”, the “polyreactivity (PSR sort gate)” value was “low polyreactivity”.
For “QVQLVESGGGLVQAGGSLRLSCAASGFILPHYTMGWYRQAPGKERELVAAITSGVSTYYADSVKGRFTISRDNAKNTVYLQMNSLKPEDTAVYYCNALATYIGYKYDYWGQGTQVTVSS”, the “polyreactivity (PSR sort gate)” value was “low polyreactivity”.
